Here are results for two molecules from patent US20060270832A1.

In the experiment the target is human noradrenaline transporter (hNET) (human), P23975. Description: cell-based or functional assay.
human noradrenaline transporter (hNET) (human), P23975, sequence (P23975 whole entry): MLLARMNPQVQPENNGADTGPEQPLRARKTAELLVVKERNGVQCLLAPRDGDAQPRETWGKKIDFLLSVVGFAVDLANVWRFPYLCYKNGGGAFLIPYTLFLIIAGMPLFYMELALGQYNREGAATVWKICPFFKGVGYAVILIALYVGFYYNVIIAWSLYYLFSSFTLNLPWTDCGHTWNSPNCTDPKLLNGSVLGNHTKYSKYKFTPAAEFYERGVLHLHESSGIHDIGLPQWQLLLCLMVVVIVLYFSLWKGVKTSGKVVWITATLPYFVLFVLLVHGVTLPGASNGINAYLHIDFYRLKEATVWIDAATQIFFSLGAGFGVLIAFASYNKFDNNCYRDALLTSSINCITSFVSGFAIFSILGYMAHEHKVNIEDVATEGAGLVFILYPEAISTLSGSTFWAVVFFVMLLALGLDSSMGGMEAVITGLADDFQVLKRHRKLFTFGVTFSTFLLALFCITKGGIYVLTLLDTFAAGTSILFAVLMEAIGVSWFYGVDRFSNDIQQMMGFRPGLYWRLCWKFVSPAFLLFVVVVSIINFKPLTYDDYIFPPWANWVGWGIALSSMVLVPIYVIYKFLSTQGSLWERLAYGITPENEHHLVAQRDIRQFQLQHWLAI

WKDLCCGYKLCHPC (modifications not checked) [SEQ ID NO. 85] displayed an Av IC50, inhibition of NA uptake via hNET (log M (unit not given)) of -7.05.

In turn, GYKLGCCGYKLCC (modifications not checked) [SEQ ID NO. 99] registered an Av IC50, inhibition of NA uptake via hNET (log M (unit not given)) of -6.99.
